This is an account of results in patent US20140212458A1.

The target of experiment [1] is BG505.T332N Env on Env-pseudotyped virus (HIV-1 BG505 (clade A)).
For experiment [2] the target is unchanged. Briefly: cell-based or functional assay.

Take 1NC9 (antibody): in experiment [1], the IC50, neutralization of BG505.T332N pseudovirus, TZM-bl cells was 251 ng/mL.

Regarding 2G12 (antibody), the IC50, neutralization of BG505.T332N pseudovirus, TZM-bl cells in experiment [1] is 790 ng/mL.

In experiment [1], 3BC176 (antibody) came in with an IC50, neutralization of BG505.T332N pseudovirus, TZM-bl cells of 175 ng/mL.

In turn, 3BC315 (antibody) had an IC50, neutralization of BG505.T332N pseudovirus, TZM-bl cells in experiment [1] of 1260 ng/mL.

On to 3BNC60 (antibody), for which, in experiment [1], the IC50, neutralization of BG505.T332N pseudovirus, TZM-bl cells came to 34 ng/mL.

In turn, 3BNC117 (antibody) gave an IC50, neutralization of BG505.T332N pseudovirus, TZM-bl cells in experiment [1] of 41 ng/mL.

Regarding 7B2 (antibody), the IC50, neutralization of BG505.T332N pseudovirus, TZM-bl cells in experiment [1] is over 30000 ng/mL. In experiment [2], this substance displayed an IC50 of neutralization of BG505.T332N Env-pseudovirus (TZM-bl) of over 30000 ng/mL.

On to 8ANC195 (antibody), for which the IC50, neutralization of BG505.T332N pseudovirus, TZM-bl cells in experiment [1] stood at 139 ng/mL.

12A12 (antibody) came in with an IC50, neutralization of BG505.T332N pseudovirus, TZM-bl cells in experiment [1] of 50 ng/mL.

In turn, 45-46 (antibody) displayed an IC50, neutralization of BG505.T332N pseudovirus, TZM-bl cells in experiment [1] of 33 ng/mL.

Substance A32 (antibody) yielded an IC50, neutralization of BG505.T332N pseudovirus, TZM-bl cells in experiment [1] of over 30000 ng/mL. In experiment [2], the IC50 of neutralization of BG505.T332N Env-pseudovirus (TZM-bl) was over 30000 ng/mL.

In the case of CH01 (antibody), the IC50, neutralization of BG505.T332N pseudovirus, TZM-bl cells in experiment [1] was found to be 301 ng/mL.

The substance CH31 (antibody) yielded an IC50, neutralization of BG505.T332N pseudovirus, TZM-bl cells in experiment [1] of 14 ng/mL.

Substance CH103 (antibody) had an IC50, neutralization of BG505.T332N pseudovirus, TZM-bl cells in experiment [1] of 2570 ng/mL.

Turning to CH106 (antibody), the IC50, neutralization of BG505.T332N pseudovirus, TZM-bl cells in experiment [1] came to 2700 ng/mL.

F91 (antibody) registered an IC50, neutralization of BG505.T332N pseudovirus, TZM-bl cells in experiment [1] of over 30000 ng/mL. In addition, the IC50 of neutralization of BG505.T332N Env-pseudovirus (TZM-bl) in experiment [2] was over 30000 ng/mL.

The substance F105 (antibody) displayed an IC50, neutralization of BG505.T332N pseudovirus, TZM-bl cells in experiment [1] of over 30000 ng/mL. In experiment [2], the IC50 of neutralization of BG505.T332N Env-pseudovirus (TZM-bl) is over 30000 ng/mL.

In experiment [1], F240 (antibody) displayed an IC50, neutralization of BG505.T332N pseudovirus, TZM-bl cells of over 30000 ng/mL. This substance returned an IC50 of neutralization of BG505.T332N Env-pseudovirus (TZM-bl) in experiment [2] of over 30000 ng/mL.

Consider HJ16 (antibody), for which, in experiment [1], the IC50, neutralization of BG505.T332N pseudovirus, TZM-bl cells is 3200 ng/mL.

PG16 (antibody) yielded an IC50, neutralization of BG505.T332N pseudovirus, TZM-bl cells in experiment [1] of 8 ng/mL.

In experiment [1], PGT121 (antibody) showed an IC50, neutralization of BG505.T332N pseudovirus, TZM-bl cells of 15 ng/mL.

On to PGT122 (antibody), for which the IC50, neutralization of BG505.T332N pseudovirus, TZM-bl cells in experiment [1] was found to be 112 ng/mL.

The substance PGT123 (antibody) returned an IC50, neutralization of BG505.T332N pseudovirus, TZM-bl cells in experiment [1] of 28 ng/mL.

As for PGT125 (antibody), the IC50, neutralization of BG505.T332N pseudovirus, TZM-bl cells in experiment [1] stood at 7 ng/mL.

For the substance PGT126 (antibody), the IC50, neutralization of BG505.T332N pseudovirus, TZM-bl cells in experiment [1] stood at 10 ng/mL.

In experiment [1], PGT127 (antibody) displayed an IC50, neutralization of BG505.T332N pseudovirus, TZM-bl cells of 37 ng/mL.

Substance PGT128 (antibody) gave an IC50, neutralization of BG505.T332N pseudovirus, TZM-bl cells in experiment [1] of 11 ng/mL.

For PGT130 (antibody), the IC50, neutralization of BG505.T332N pseudovirus, TZM-bl cells in experiment [1] worked out at 27 ng/mL.

PGT135 (antibody): the IC50, neutralization of BG505.T332N pseudovirus, TZM-bl cells in experiment [1] is 2230 ng/mL.

PGT136 (antibody) yielded an IC50, neutralization of BG505.T332N pseudovirus, TZM-bl cells in experiment [1] of 25700 ng/mL. This substance also returned an IC50 of neutralization of BG505.T332N Env-pseudovirus (TZM-bl) in experiment [2] of 26600 ng/mL.

As to PGT145 (antibody), the IC50, neutralization of BG505.T332N pseudovirus, TZM-bl cells in experiment [1] turned out to be 83 ng/mL.

Take PGV04 (antibody): in experiment [1], the IC50, neutralization of BG505.T332N pseudovirus, TZM-bl cells is 66 ng/mL.

Consider VRC01 (antibody), for which, in experiment [1], the IC50, neutralization of BG505.T332N pseudovirus, TZM-bl cells was found to be 70 ng/mL.

Consider VRC03 (antibody), for which, in experiment [1], the IC50, neutralization of BG505.T332N pseudovirus, TZM-bl cells is 554 ng/mL.

VRC06 (antibody) returned an IC50, neutralization of BG505.T332N pseudovirus, TZM-bl cells in experiment [1] of 3320 ng/mL.

For the substance VRC06b (antibody), the IC50, neutralization of BG505.T332N pseudovirus, TZM-bl cells in experiment [1] is 1110 ng/mL.

In experiment [1], X5 (antibody) gave an IC50, neutralization of BG505.T332N pseudovirus, TZM-bl cells of over 30000 ng/mL. In experiment [2], this substance returned an IC50 of neutralization of BG505.T332N Env-pseudovirus (TZM-bl) of over 30000 ng/mL.

In turn, b6 (antibody) displayed an IC50, neutralization of BG505.T332N pseudovirus, TZM-bl cells in experiment [1] of over 30000 ng/mL. Also, in experiment [2], the IC50 of neutralization of BG505.T332N Env-pseudovirus (TZM-bl) is over 30000 ng/mL.

In turn, b12 (antibody) displayed an IC50, neutralization of BG505.T332N pseudovirus, TZM-bl cells in experiment [1] of over 30000 ng/mL. Besides, in experiment [2], the IC50 of neutralization of BG505.T332N Env-pseudovirus (TZM-bl) stood at 30000 ng/mL.
